Here are results for 62 sequences from the supplement of paper PMC7877785.

This series can be described thus: self-splicing fitness, log relative to wild type (ln ratio); higher = more splicing; Tetrahymena group I intron in knt gene, E. coli kanamycin selection, DiMSum; sequences stand for … in CUCUCU…GGAGGGAAAAGUUAUCAGGCAUGCACCUGGUAGCUAGUCUUUAAACCAAUAGAUUGCAUCGGUUUAAAAGGCAAGACCGUCAAAUUGCGGGAAAGGGGUCAACAGCCGUUCAGUACCAAGUCUCAGGGGAAACUUUGAGAUGGCCUUGCAAAGGGUAUGGUAAUAAGCUGACGGACAUGGUCCUAACCACGCAGCCAAGUCCUAAGUCAACAGAUCUUCUGUUGAUAUGGAUGCAGUUCACAGACUAAAUGUCGGUCGGGGAAGAUGUAUUCUUCUCAUAAGAUAUAGUCGGACCUCUCCUUAAUGGGAGCUAGCGGAUGAAGUGAUGCAACACUGGAGCCGCUGGGAACUAAUUUGUAUGCGAAAGUAUAUUGAUUAGUUUUGGAGUACUCGUGGUCG
Summed up:
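Pooled colonies went to amplicon sequencing on an Illumina HiSeq 2500 after six replicate transformations. The plates were LB agar with 100 μg/mL carbenicillin, 50 μM IPTG and 0.2% rhamnose, with or without 25 μg/mL kanamycin, incubated overnight at 37°C or 30°C. The E. coli BL21(DE3) library had all eight P1ex-region intron nucleotides randomised, the intron placed in the knt kanamycin-resistance gene on pET-22b(+). DiMSum fitness is the error-weighted combination of replicate fold changes, kanamycin against none, normalised to wild type.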

± gives the uncertainty stated by the source.

Consider AAUAAGCAAUAUUACGGAAC, for which the “self-splicing fitness (ln)” value by setting is: (30 °C) -4.53 ± 0.34; (37 °C) -2.16 ± 0.23.

With CUGUAGCAAUAUUACGUUGA, the “self-splicing fitness (ln)” value is, setting by setting: (30 °C) -2.93 ± 0.2; (37 °C) -2.43 ± 0.2.

Consider AUGCAGCAAUAUUACGCGGA, for which the “self-splicing fitness (ln)” value is -2.88 ± 0.11 (30 °C) and -0.559 ± 0.069 (37 °C).

With AUUCAGCAAUAUUACGUUGU, the “self-splicing fitness (ln)” value is, setting by setting: (30 °C) -3.14 ± 0.15; (37 °C) -2.3 ± 0.21.

CGGAAGCAAUAUUACGGGAG: the “self-splicing fitness (ln)” value is -2.37 ± 0.1 (30 °C) and -2.02 ± 0.17 (37 °C).

GAGUAGCAAUAUUACGAACG: where the note is “30 °C”, the “self-splicing fitness (ln)” value was -2.36 ± 0.48.

On to ACCAAGCAAUAUUACGCACU, for which the “self-splicing fitness (ln)” value (30 °C) is -0.396 ± 0.07 and the “self-splicing fitness (ln)” value (37 °C) was 0.498 ± 0.085.

Turning to CACAAGCAAUAUUACGGACU, the “self-splicing fitness (ln)” value (30 °C) was -2.54 ± 0.14 and the “self-splicing fitness (ln)” value (37 °C) is -2.11 ± 0.14.

As for CGGUAGCAAUAUUACGGUGC, the “self-splicing fitness (ln)” value (30 °C) was -2.22 ± 0.27 and the “self-splicing fitness (ln)” value (37 °C) is -2.48 ± 0.38.

On to AGAAAGCAAUAUUACGUGAA, for which the “self-splicing fitness (ln)” value by setting is: (30 °C) -2.39 ± 0.13; (37 °C) -1.96 ± 0.12.

Take UCUCAGCAAUAUUACGGAGC: the “self-splicing fitness (ln)” value is, setting by setting: (30 °C) -2.1 ± 0.47; (37 °C) -2.27 ± 0.47.

Turning to UUUCAGCAAUAUUACGGGCC, the “self-splicing fitness (ln)” value is, setting by setting: (30 °C) -4.27 ± 0.46; (37 °C) -2.37 ± 0.37.

Regarding ACGGAGCAAUAUUACGAGUC, the “self-splicing fitness (ln)” value (30 °C) was -3.83 ± 0.33 and the “self-splicing fitness (ln)” value (37 °C) is -2.64 ± 0.38.

As to GAGCAGCAAUAUUACGGAGU, the “self-splicing fitness (ln)” value runs as follows: (30 °C) -3.32 ± 0.26; (37 °C) -3.07 ± 0.4.

As to CCUGAGCAAUAUUACGUGUA, the “self-splicing fitness (ln)” value by setting is: (30 °C) -3.53 ± 0.2; (37 °C) -2.16 ± 0.2.

With CGUCAGCAAUAUUACGGAUU, the “self-splicing fitness (ln)” value is -1.35 ± 0.1 (30 °C) and -0.245 ± 0.1 (37 °C).

With GCAGAGCAAUAUUACGGUGG, the “self-splicing fitness (ln)” value runs as follows: (30 °C) -3.65 ± 0.33; (37 °C) -2.21 ± 0.21.

Take UUAGAGCAAUAUUACGUAAC: the “self-splicing fitness (ln)” value is -2.76 ± 0.39 (30 °C) and -1.73 ± 0.49 (37 °C).

As for GGCUAGCAAUAUUACGAGGU, the “self-splicing fitness (ln)” value (30 °C) was -3.02 ± 0.42 and the “self-splicing fitness (ln)” value (37 °C) was -1.07 ± 0.18.

On to GCACAGCAAUAUUACGCACC, for which the “self-splicing fitness (ln)” value was -0.769 ± 0.13 (30 °C) and 0.129 ± 0.15 (37 °C).

As for CGGAAGCAAUAUUACGACCA, the “self-splicing fitness (ln)” value is, setting by setting: (30 °C) 0.623 ± 0.2; (37 °C) -0.13 ± 0.27.

Consider AUGGAGCAAUAUUACGCUGC, for which the “self-splicing fitness (ln)” value (37 °C) was -2.95 ± 0.38.

As to GAGCAGCAAUAUUACGGUCU, the “self-splicing fitness (ln)” value was -0.727 ± 0.12 (30 °C) and -0.857 ± 0.14 (37 °C).

Consider GCAUAGCAAUAUUACGAAGG, for which the “self-splicing fitness (ln)” value (30 °C) was -2.02 ± 0.2 and the “self-splicing fitness (ln)” value (37 °C) is -1.31 ± 0.22.

CUUCAGCAAUAUUACGGGUG: the “self-splicing fitness (ln)” value (30 °C) was -0.356 ± 0.038 and the “self-splicing fitness (ln)” value (37 °C) worked out at 0.33 ± 0.058.

As to AGCGAGCAAUAUUACGUGUA, the “self-splicing fitness (ln)” value runs as follows: (30 °C) -2.83 ± 0.12; (37 °C) -1.98 ± 0.13.

On to ACACAGCAAUAUUACGAUCU, for which the “self-splicing fitness (ln)” value reads like this: (30 °C) -0.658 ± 0.053; (37 °C) 0.14 ± 0.082.

For the sequence ACACAGCAAUAUUACGGACA, the “self-splicing fitness (ln)” value was -1.63 ± 0.095 (30 °C) and -1.04 ± 0.089 (37 °C).

As for AGCCAGCAAUAUUACGACCA, the “self-splicing fitness (ln)” value reads like this: (30 °C) -1.61 ± 0.14; (37 °C) -2.81 ± 0.3.

As to CUCUAGCAAUAUUACGACUG, the “self-splicing fitness (ln)” value reads like this: (30 °C) -1.68 ± 0.15; (37 °C) -0.621 ± 0.18.

Take CAUAAGCAAUAUUACGGUCA: the “self-splicing fitness (ln)” value is -2.41 ± 0.24 (30 °C) and -1.89 ± 0.2 (37 °C).

As to ACACAGCAAUAUUACGACAA, the “self-splicing fitness (ln)” value runs as follows: (30 °C) -1.86 ± 0.11; (37 °C) -0.755 ± 0.14.

On to UUUCAGCAAUAUUACGGCUG, for which the “self-splicing fitness (ln)” value (30 °C) was -4.1 ± 0.46 and the “self-splicing fitness (ln)” value (37 °C) was -1.84 ± 0.27.

With UGCGAGCAAUAUUACGCACG, the “self-splicing fitness (ln)” value (30 °C) was -2.22 ± 0.28 and the “self-splicing fitness (ln)” value (37 °C) was -1.98 ± 0.36.

Take UGAGAGCAAUAUUACGGUAC: under “37 °C”, the “self-splicing fitness (ln)” value was -2 ± 0.38.

GUCCAGCAAUAUUACGCAUA: the “self-splicing fitness (ln)” value by setting is: (30 °C) -0.663 ± 0.091; (37 °C) -0.0806 ± 0.094.

On to GACAAGCAAUAUUACGAACG, for which the “self-splicing fitness (ln)” value reads like this: (30 °C) -1.55 ± 0.13; (37 °C) -0.997 ± 0.22.

Consider CAGAAGCAAUAUUACGUAGG, for which the “self-splicing fitness (ln)” value (30 °C) was -0.872 ± 0.06 and the “self-splicing fitness (ln)” value (37 °C) came out at 0.297 ± 0.1.

With CGUUAGCAAUAUUACGAGGG, the “self-splicing fitness (ln)” value was -3.63 ± 0.47 (30 °C) and -0.739 ± 0.19 (37 °C).

For the sequence GAUGAGCAAUAUUACGGUGG, the “self-splicing fitness (ln)” value was -4.41 ± 0.23 (30 °C) and -1.73 ± 0.14 (37 °C).

On to AAUAAGCAAUAUUACGACGC, for which the “self-splicing fitness (ln)” value is -0.19 ± 0.093 (30 °C) and 0.0933 ± 0.12 (37 °C).

As for CACAAGCAAUAUUACGUCUG, the “self-splicing fitness (ln)” value by setting is: (30 °C) -1.34 ± 0.07; (37 °C) -0.0931 ± 0.074.

With UGACAGCAAUAUUACGCAGA, the “self-splicing fitness (ln)” value runs as follows: (30 °C) -1.96 ± 0.15; (37 °C) -1.11 ± 0.13.

With CCGCAGCAAUAUUACGAAGU, the “self-splicing fitness (ln)” value (30 °C) is -3.34 ± 0.31 and the “self-splicing fitness (ln)” value (37 °C) was -2.5 ± 0.33.

For the sequence UUCGAGCAAUAUUACGGAGC, the “self-splicing fitness (ln)” value (37 °C) was -3.16 ± 0.38.

On to UUUCAGCAAUAUUACGGUAA, for which the “self-splicing fitness (ln)” value was -0.255 ± 0.1 (30 °C) and -0.168 ± 0.084 (37 °C).

UGUGAGCAAUAUUACGUAGG: the “self-splicing fitness (ln)” value is -3.5 ± 0.16 (30 °C) and -1.5 ± 0.14 (37 °C).

Take UCCGAGCAAUAUUACGAUAA: the “self-splicing fitness (ln)” value is, setting by setting: (30 °C) -2 ± 0.22; (37 °C) -2.41 ± 0.32.

Regarding AGGGAGCAAUAUUACGCCGA, the “self-splicing fitness (ln)” value (30 °C) is -2.38 ± 0.25.

For CUCUAGCAAUAUUACGCCAC, where the note is “30 °C”, the “self-splicing fitness (ln)” value was -2.66 ± 0.28.

CUCGAGCAAUAUUACGGAGG: the “self-splicing fitness (ln)” value was -2.97 ± 0.1 (30 °C) and -1.46 ± 0.097 (37 °C).

Turning to CGCCAGCAAUAUUACGGGGA, the “self-splicing fitness (ln)” value by setting is: (30 °C) -3.02 ± 0.22; (37 °C) -3.06 ± 0.27.

With UCUAAGCAAUAUUACGAUUU, the “self-splicing fitness (ln)” value is, setting by setting: (30 °C) -2.92 ± 0.24; (37 °C) -1.37 ± 0.16.

Regarding UCCUAGCAAUAUUACGUCGG, the “self-splicing fitness (ln)” value is -2.31 ± 0.19 (30 °C) and -0.128 ± 0.15 (37 °C).

As for GUUAAGCAAUAUUACGGAAA, the “self-splicing fitness (ln)” value (30 °C) is -1.77 ± 0.26 and the “self-splicing fitness (ln)” value (37 °C) was -1.06 ± 0.27.

Take UCAGAGCAAUAUUACGUAUA: the “self-splicing fitness (ln)” value reads like this: (30 °C) -3.46 ± 0.27; (37 °C) -2.44 ± 0.23.

As for ACCAAGCAAUAUUACGACUA, the “self-splicing fitness (ln)” value is -0.894 ± 0.099 (30 °C) and -0.585 ± 0.093 (37 °C).

Regarding UUAAAGCAAUAUUACGCAAA, the “self-splicing fitness (ln)” value by setting is: (30 °C) -1.1 ± 0.079; (37 °C) -0.177 ± 0.12.

Consider GGAGAGCAAUAUUACGUGGA, for which the “self-splicing fitness (ln)” value (37 °C) was -3.26 ± 0.32.

As for GUUAAGCAAUAUUACGAAGU, the “self-splicing fitness (ln)” value (30 °C) is -2.06 ± 0.18 and the “self-splicing fitness (ln)” value (37 °C) is -1.45 ± 0.23.

Turning to UGUUAGCAAUAUUACGGGAA, the “self-splicing fitness (ln)” value is -1.84 ± 0.24 (30 °C) and -0.696 ± 0.2 (37 °C).

AUAAAGCAAUAUUACGGUAU: the “self-splicing fitness (ln)” value reads like this: (30 °C) -0.836 ± 0.068; (37 °C) -0.0795 ± 0.1.
